Reference: publication doi:10.1101/2025.02.26.640323, “Aggregation-Dependent Epitope Sequence and Modification Fingerprints of Anti-Aβ Antibodies” (bioRxiv, 2025)
“Also recorded” adds a separate entry of the source.

How the values were obtained:
[1] = Isoelectric point on CIEF immunoassay; assay type: physicochemical; details: Peggy Sue
Method: (§1) Automated capillary isoelectric focusing immunoassays were performed with a Peggy-Sue system (ProteinSimple,San Jose, California, USA), essentially as previously described and [53].
(§2) In brief, synthetic Aβ peptide variants were separated by isoelectric focusing in microcapillaries followed by photochemical immobilization to the inner capillary walls and probing with the primary antibodies for 120 min. After 2 washes, the horseradish peroxidase conjugated secondary antibodies were loaded and incubated for 60 min. After two washing steps, a luminol/peroxide mix was loaded, and chemiluminescent signals were recorded. The data was analyzed with the Compass for SW software. The following secondary antibodies were used: Anti-human IgG Secondary HRP antibody (Protein Simple, catalog number 043–491), Goat-Anti-Mouse-HRP Secondary Antibody ProteinSimple, catalog number 040–655) and Peroxidase-conjugated Affini Pure Donkey Anti-Human IgG (H+L) (1:100 dilution) (Jackson ImmunoResearch Laboratories Inc., West Grove, PA, code number 709–035-149).

[2] = test system: amyloid precursor protein (APP770) residues 649–722; experiment: Peptide microarray epitope pre-screening (overlapping 15-mers); assay type: binding, human; details: 0.5–1 μg/mL antibody; for Array: epitope identified in this study on microarrays: Aβ residue numbers, 15-mer peptides overlapping by 14AAs on cellulose conjugates, chemiluminescence
Method: Information regarding binding epitopes and /or immunogens for most of the tested Aβ-Abs has been published and is summarized in Table 1. However, the binding epitope information was derived from varying methodologies. To provide an initial side-by-side comparison we pre-screened all of the listed Aβ-Abs in array format using copies of peptide libraries and standard antibody concentrations of 0.5–1 μg/mL (Figure 1a). The library comprised the amyloid precursor protein (APP770) residues 649–722, corresponding to the canonical Aβ1–42 amino acid sequence with additional 23 amino terminal and 9 carboxy terminal residues. […] For optimal signal to noise ratios and ideal selectivity profiles on the microarrays, the Aβ-Ab concentrations were adjusted for 3D6, 82E1, 11H3, 80C2 and 7H3D6 (Figure 1 – figure- supplement 1) and (Appendix 1–7). […] Specifically, Donanemabbs, 2–48 and Aβ-pE3 were raised against AβpE3-x (Table 1) and were expected to show preference for Aβ peptides starting with a pE(3).
Figure 1. Microarray workflow and Aβ-Ab epitope pre-screening. (a) Schematic of the microarray workflow. The library comprised the amyloid precursor protein (APP) residues 649–722 (APP770 numbering), corresponding to Aβ residues −23 to 51, as a library of 15-mer peptides overlapping by 14AAs, copied in dozens, and probed for Aβ-Abs binding followed by analysis in MARTin. (b) The epitope screening binding data are summarized as a heatmap. Blue and red shades indicate the relative binding strength of the related arrayed peptides to the left and cognate Aβ-Ab on top. The blue – red scale is visualizing the normalized binding intensity for each antibody individually. The applied antibody concentrations ranged between 0.5–1 μg/mL.
The μSPOT assay was performed as previously described. […] Peptide arrays were synthesized using MultiPep RSi robot (CEM GmbH, Kamp-Lintford, Germany) on cellulose discs containing Fmoc-β-Ala linkers. Natural amino acid building blocks were purchased from IRIS (IRIS Biotech GmbH, Marktredwitz, Germany). Special building blocks employed in this study such as isomers, stereoisomers, phosphorylation and pyroglutamination […] modifications are listed here: Fmoc-L-Ser(PO(OBzl)OH)-OH (Iris – FAA1423), L-Pyroglutamic acid pentachlorophenyl ester (Novabiochem - 8.54203), Fmoc-L-Asp-OtBu (Iris – FAA1356), Fmoc-D-Asp-OtBu (Carbosolutions – CC05095) and Fmoc-D-Asp(tBu)-OH (Iris – FAA1309). Synthesis was carried out by deprotecting the Fmoc-group using 20% piperidine in dimethylformamide (DMF). Peptide chains were elongated using a coupling solution consisting of amino acids (0.5M) with oxyma (1M) and DIC (1M) in DMF (1:1:1). Coupling steps were carried out 3 times (30min), followed by capping (4% acetic anhydride in DMF). Discs were transferred into 96 deep-well plates for the work-up.

AβpE3-x = experiment: PTM-Aβ microarray, pE3; assay type: binding, human; details: Donanemabbs 0,0012μg/mL, 2–48, Aβ-pE3, IC16 […], vs Aβ3-x with non-cyclized Glu
Source text: Specific PTMs might be associated with different stages of AD progression and severity, offering potential biomarkers for diagnosis and prognosis. Targeting PTMs represents a potential therapeutic strategy to prevent Aβ aggregation and neurotoxicity, thereby slowing disease progression. […] Therefore, a selected group of PTM-carrying Aβ peptides (PTM-Aβ) were incorporated into the Aβ chip to explore the potential binding preference of selected Aβ-Abs, under optimized concentrations (Figure 3). The antibodies were tested with both PTM-Aβ and the corresponding unmodified variants to provide a head-to-head comparison. This screening was performed in the presence of Aβ phosphorylated at positions Ser(8) or Ser(26), N-terminal pE at position 3, racemization/isomerization of Asp at position 1, and unmodified N-terminal variants. The dataset is divided into sections (Figure 3 a–f) for enhanced visualization, where each antibody was screened simultaneously against all peptides to locate their epitope preferences. […] A set of antibodies without reported PTM preference was applied here as controls (refer to Table 1), namely 11H3, 101–1-1, IC16, 82E1 and 3D6.
Figure 3. […] Blue and red shades indicate the binding strength over the related arrayed […] modified peptide shown on top and cognate anti-Aβ antibody to the left. […]

Aβ = details: cited from earlier work
CAA fibrils = details: ref [38],[47]; cited from earlier work
Source text: Despite extensive structural, genetic, and pre-clinical investigations, clinical trials of Aβ antibodies have yielded ambiguous outcomes. Aβ antibody binding to cerebral amyloid angiopathy (CAA) has been hypothesized to correlate with the frequency of amyloid-related imaging abnormalities with edema (ARIA-E) observed in patients treated with Aβ-based immunotherapies.

[3] = test system: endogenous soluble Aβ in pooled human CSF; experiment: IP-MS from pooled human CSF; assay type: binding; details: 250 μL pooled human CSF, CHCA matrix; two replicate measurements each from two independent immunoprecipitations
[4] = test system: Aβ1–42 monomer, oligomer and fibril preparations; AβpE3–40; experiment: Bistris-SDS gradient PAGE/Western blot; assay type: binding; details: 4–12% Bistris SDS-PAGE/Western blot
Method: No SPR-487B) (StressMarq biosciences, Victoria, BC, Canada). The samples for electrophoresis were prepared (starting from stock solutions) with final concentrations of 0.1 μg/μL) in LDS sample buffer (247.5 mM Tris-HCl, pH 8.5, 2% (w/v) lithium dodecyl sulfate (LDS), 10% (v/v) glycerol, 0.5 mM EDTA, 0.22 mM Brilliant Blue G250, 0.175 mM Phenol Red) and denatured by heating at 70°C for 10 min. […] The prechilled transfer buffer contained 25 mM Tris, 192 mM glycine, 20% (v/v) methanol and 0.0375 % Tween-20. After blotting, the membrane was washed for 10 min at room temperature in Tris-buffered saline (TBS) followed by blocking for 30 min with 5% powdered milk in TBS containing 0.1% Tween-20 (TBS-T). The blots were then incubated with primary antibodies in 5% milk in TBS-T over night at 4°C and washed 3 × for 10 min with TBS-T at room temperature. […] After 1 h incubation with the secondary antibodies, the blots were washed 3 × for 10 min with TBS-T and incubated for 5 min with ECL-Prime Western Blotting Detection Reagent (Cytiva Amersham, Little Chalfont, England). Images were recorded on a Vilber-Loumart Fusion SL blot imager. […] That way, the 4G8 reprobing signals were essentially added on top of the initial signals and background artifacts.

synthetic Aβ peptides = experiment: Peptide Bicine-Tris SDS-PAGE/Western blot; assay type: binding; details: PVDF, 50 ng per peptide, 0.5 μg/mL antibody
[5] = test system: synthetic Aβ peptide variants; experiment: Capillary isoelectric focusing (CIEF) immunoassay; assay type: binding; details: Peggy Sue, chemiluminescence
Method: as §1, §2

[6] = test system: Aβ vascular and parenchymal deposits in AD brain sections; experiment: Immunohistochemistry on AD brain tissue with antibody pre-adsorption; set-up: species or system human
Method: Immunohistochemistry was performed on 4-μm paraffin sections. In brief, brain sections were deparaffinized in Roticlear (Carl Roth, Karlsruhe, Germany) and rehydrated in a descending series of ethanol. Activity of endogenous peroxidases was blocked by incubation in 0.3% H2O2 in PBS for 30 min. […] Antibodies and peptides were incubated on a rotator for 3 h at room temperature and reaction tubes were centrifuged at 13000 rpm for 5 min at the end of the incubation period. Control conditions included antibodies in 0.01 M PBS including 10% FCS without synthetic peptides. Adjacent paraffin-embedded sections from a human AD case were incubated overnight with the supernatants and sections were washed with 0.01 M PBS including 0.1 % Tergitol. For detection, biotinylated anti-human antibodies (6 μg/ml, Jackson ImmunoResearch, West Grove, Pennsylvania, USA #109-065-003) were used and staining was visualized with the ABC method with a Vectastain kit (Vector Laboratories, Newark, California, USA), diaminobenzidine as a chromogen and counterstaining with hematoxylin.

[7] = test system: Alzheimer's disease patients; details: cited from earlier work
[8] = Lecanemabbs #BXC-SIM0032, 0.06 μg with 0.25 μg peptide

For “Aβ1–42: synthetic Aβ peptide, AnaSpec; monomers, oligomers, fibrils from StressMarq”, the pI [1] was “approx. 5.3”.

With Aβ1–40: synthetic Aβ peptide, AnaSpec the pI [1] was 5.31.

For “Aβ−3–40: N-terminally elongated Aβ, provided by H.-J. Knölker, Technische Universität Dresden”, the pI [1] was 6.04.

With “Donanemab: Eli Lilly's Donanemab, approved in the US as Kisunla [reference compound]” the “Array: epitope identified in this study on microarrays” value (“Array: epitope identified” below) [2] was 3–10, the “binding in epitope pre-screening” value ([2]; unmodified Aβ-related 15-mers, generic pre-screening conditions) was “produced detectable signals in this pre-screening with unmodified Aβ-related peptides” and the “selectivity for / binding to AβpE3-x” value (AβpE3-x) was “cyclized AβpE3-x as the dominant binding determinant”. For the same molecule, the “reported selectivity for modified Aβ” value (Aβ; ref [47],[64],[57],[14]) was “selective for AβpE3; also recorded: known to recognize Aβ starting with cyclized pE3” and the “binding to CAA fibrils” value (CAA fibrils) was “binds to CAA fibrils in proportion to the amount of pyroglutamate-modified Aβ they present”.

B1: Lecanemabbs: humanized monoclonal, biosimilar of Lecanemab, Proteogenix (#PX-TA1746) and BioXCell (#BXC-SIM0032) (antibody, chains of the INN, looked up, V domains shown)
VH: EVQLVESGGGLVQPGGSLRLSCSASGFTFSSFGMHWVRQAPGKGLEWVAYISSGSSTIYYGDTVKGRFTISRDNAKNSLFLQMSSLRAEDTAVYYCAREGGYYYGRSYYTMDYWGQGTTVTVSS
VL: DVVMTQSPLSLPVTPGAPASISCRSSQSIVHSNGNTYLEWYLQKPGQSPKLLIYKVSNRFSGVPDRFSGSGSGTDFTLRISRVEAEDVGIYYCFQGSHVPPTFGPGTKLEIK
modifications: biosimilar
In the case of B1, the “Array: epitope identified” value [2] is reported as 3–7, the “immunoprecipitation of endogenous Aβ from CSF” value [3] is reported as “immunoprecipitated authentic biological Aβ peptides from pooled human CSF; also recorded: Aβ1–40, Aβ1–38, Aβ42, Aβ1–37 and Aβ1–39 were detected, albeit with relatively low signal intensities” and the “preference for Aβ1–42 aggregation state” value [4] is reported as “a certain, but not absolute preference for aggregated forms of Aβ1–42 over monomeric and low-n oligomeric forms”. The “Aβ variants detected on Bicine-Tris SDS-PAGE/Western blot” value (synthetic Aβ peptides) was “recognized Aβ1–40, Aβ1–42, Aβ3–40 (pI approximately 5.97) Aβ-3–40 (aka. APP669–711),phosphorylated pSer8-Aβ1–40”, the “Aβ variants detected on CIEF-immunoassay” value [5] was “recognized Aβ1–40, Aβ1–42, Aβ3–40 (pI approximately 5.97) Aβ-3–40 (aka. APP669–711),phosphorylated pSer8-Aβ1–40; also recorded: detected Aβ1–40 (pI 5.31), Aβ2–40 (pI 5.98), Aβ3–40 (pI 5.97), Aβ−3–40 (pI 6.04), Aβ1–42 (pI approx. 5.3) and pSer8Aβ1–40 (amide) (pI 5.13–5.14)” and the “IHC immunoreactivity after pre-adsorption with Aβ1–42 fibrils” value ([6]; Aducanumabbs 0.5 μg with 5 μg fibrils, Lecanemabbs (PX-TA1746) 0.06 μg with 0.25 μg, human AD brain, antibody for IHC: Aducanumabbs 0.5 μg/μl (so in the source)) was “efficiently blocked”. The “IHC immunoreactivity after pre-adsorption with Aβ1–42 monomers” value ([6]; Aducanumabbs 0.5 μg with 10 μg monomers, Lecanemabbs (PX-TA1746) 0.06 μg with 0.25 μg, human AD brain) was “efficiently blocked”, the “IHC blocking by Aβ1–16 (BioXCell lot)” value [6, 8] was “did not” and the “IHC blocking by Aβ1–34 (BioXCell lot)” value [6, 8] was “did not”. For the same molecule, the “IHC blocking by Aβ1–38 (BioXCell lot)” value [6, 8] was “did not”, the “IHC blocking by Aβ1–42 monomers (BioXCell lot)” value [6, 8] was “completely blocked Lecanemabbs binding” and the “IHC immunoreactivity after pre-adsorption with Aβ1–42 oligomers” value ([6]; Lecanemabbs (PX-TA1746) 0.06 μg with 0.25 μg oligomers, human AD brain) was “efficiently blocked”.

B2: Lecanemab: designed at Uppsala University, humanized by BioArctic, later licensed to Eisai (antibody, chains of the INN, looked up, V domains shown)
VH: B1 VH
VL: B1 VL
In the case of B2, the “Array: epitope identified” value [2] is given as 3–7, the ARIA-E frequency ([7]; cross-study comparison, ref [38]) is given as 13% and the “clinical outcome, Clarity AD” value ([7]; ref [45],[46]) is given as “positive results in the Clarity AD trial”. For the same molecule, the “binding to aggregated versus monomeric Aβ” value (Aβ; ref [38],[40],[41],[83]) was “strong preference for Aβ protofibrils and to bind Aβ monomers only weakly; also recorded: preferably bind specific aggregated forms of Aβ over monomeric forms” and the “preferential binding to fibrillar Aβ” value (Aβ; ref [46]) was “preferential binding to fibrillar Aβ aggregates”.
